From the DeepSol protein solubility set

assay: soluble on expression in E. coli; label from the status in PepcDB or PDB records

Sequence | soluble on expression in E. coli
MSLRIGVAGVGKLGEFHTNLLKQIAAEASDVEFSGVFDLNPERLQEIGKKYGVACFSTLEELAASCDAAVIATTTSSHYAIARQLLEARLHLFIEKPITATLEEADKLIRIEQEKGLTIQVGHIERFNPALLAVEPYIGEPMYIQAERLSGFSRRVTDVSVVLDLMIHDIDLVLSLIKSDIRSIAASGVKVFSNELDMATARIEFENGAIANVTASRLSRSKLRKMRFFTRNPKSYASLDFTSGKSEVFRLVPPDQLSSKNPIKNFATKKILEQFGEIQESLKEMALDYVSPDVPKINALKEELEQFIDAIRKGKPAKVTSEEGRRALMVAGKITDEIRNNTADLDEGHHHHHH | soluble
MSLRIKNNEVAVYAIGGLHEIGKNMYCVQYQDEIIIMDCGIKFPEDDLLGINYVISDYSYLIKNRKKIKALVVSHGHEDHIGGIPFLLEKIPEIPVYATPFALSLIRGKLEEHGILKTTELHEEHEDTVLKFKKLSVSFFRTTHSIPDTLGIAVHTPLGAVVFTGDFKFDLTPVMDQPAPDFQKMAKLGNEGVLALLSDSTNAEVTQFTKSERFVAQSLHNIITGIHGRIIFATFASNLYRVSTAIQAAIDTGRKVAIFGRSMENGVDNGIDLGYLDIPKDLIVDAEEINKLPPDKVMILCTGSQGEPLAALSRIANGTHRQITLQPGDTVIFSSNPIPGNTLSVNHLINKLMEGGANVIHGRVNNVHTSGHGGQEELKMMVRLTKPKYMIPVHGEYRMQVIHTQLAQQAGVPAENTFVLSNGEVVCFGPNGARLAGRIPAGDVYVDTSGTADVGNVVVHDRQILSEEGLVVAVATVDYKHKRVLAGPDILSRGFVYMRESTELISQAQKHVYHVLRNEMSKSDKPKESEIKKAITENLSDFLYSKTERRPMILPIIIEKEGHHHHHH | soluble
MSLRISMATFFPQSVTALDSPLYGRSFADDKMRELFSAQSFISRCVETEVALARAQARLGIIPEDAAAGITAAARTFAPEMERLRDDTEIVGYPILPLVEQLSAHAGEAGKYLHWGATTQDIMDTATVLQIRDGLALISRRIESVRKALAALARNHRDTPMAGRTHLQHALPVTFGYKAAVWLSAFDRHAARLEEISPRVLVVEFSGASGTLASLGTRGLDVQRELARELNLGVPSITWHSARDAVAETVQFLALVSGSLGKLAMDISIMMTTELGEVAEPFVRHRGASSTMPQKQNPVSCELILAGARIVRNHATSMLDAMIHDFERATGPWHLEWSAVPEGFAVASGILYQAEFMLGGLQVFPDRMRENLDHSRGLIVAEAVMMALAPHTGRKEAHDIVYLGCRRAVEDKTGLFEVLRTMPEVAKPLGEEALRDLTDPRNYLGSAGAMVDNVLGGREGHHHHHH | soluble
MSLRKIIPINNNWYFKADYEEGYEKVDDLRSFENVNLPHTNIELPYNYFDEKMYQIKSCYKYPLHISEKYRDKVIYIHFEGVMAYAQVYLNGLYIGEHKGGYTPFDIRIDEVYDWKKELNMLTVVVDSTERSDIPPKGGQIDYLTYGGIYREVSLGIYDDVFIKNIKVETHGIYDNEKSLNLIVHLENLNHQSGNVKFKVKINDKNGKEVFYKEFNTYLDAVKDVYSFNIENLKDIKLWDVDNPNLYEIKVGMKINNFSDEYDNKFGFREAVFKPDGFYLNGRKLKLRGLNRHQSYPYVGYAMPRRVQEKDAEILKNELHLNIVRTSHYPQSKHFLNKCDELGLLVFEEIPGWQYIGNSEWKKVAEQNLREMITRDWNHPSIILWGVRINESQDDDAFYKNMNKIAHEIDPTRQTGGVRYITNSSFLEDVYTFNDFIHDGINKPLRKQQEVTGLEHNVPYLVTEYNGHMYPTKRFDNEERQMEHCLRHLRIQNASYLDDSISGAIGWCAFDYNTHKDFGSGDRICYHGVMDMFRLPKFASYVYKSQVSPDIEPILEPVTFWARGERSIGGVIPLIIFTNCDYIELQYGNKTKIDNIYPNRDAYKGIPYPPIIIDYDIVKPEMIGAWGMVWEDLTLKGFYKGNKVIERKFSREPIPTYLYVVPDDTILSATQKDATRIVVKILDQYGNLLPFINEVIKIEIEGPAKLQGPNEVALIGGEGHHHHHH | soluble
MSLRKNIFFIVFIILCAVSCTEKKSNFINTVHLKGQLLDMGSQNVRMRFDGAASMLGDSRDILLKTDAAGYFDTTFVLKEPTYYTISRNTLYLTPGDDMTIKVTQTNTEAEFSGIGAEANNYMKFRLFPKGGSYLEAGGNLRGDFVSTKALVDSLAAIRMHTLDTLSNVSDAFKKLETARIKADIINSYICYASYSRMFAEVKNEEEMRAKWNEFNVSLTQDVTPLYKEIVNEDMLNVAVVRDVLSYQEDSTLASLWFKDISIPARTTELYACAKIVDNLRNEASEQTVNEAKAFLQTVKNADFATEIEGKIVQASKLLPGQPAIDFEMLDVEGNVKHLADFKGKVIYIDLWATWCGPCIQESPAFEALGKKYVGKDIVFLPVSTDTTTKPWLRYLDGHKKELTQYHSNDVALKESWAIMYIPRFILIDKDFNIVNAYAPRPSSEEIGTLIDSVLNKEGHHHHHH | soluble
MSLRKYPEYTWDLTTIFKDDEAFEAAFKEVENELGKEEQFKGHIGDSAETLYNALELEDTLGTKLEKVYVYAHLKQDQDTTNDKYTGMESRAHQLIIKFSSAWSFLVPEILQIDEDKIQSFVNSYDKLQKFAFDLKLINEKRPHILDAETEKLLTEAQDALSTPSNVYGMFSNADLVFEDAIDKDGNAHPLTQGTFIKYLESDDRKLRESAFRNVYKAYGAHNNTLGATLAGEVKKNVFNARTHNYKTAREKALSNNHIPENVYDNLVKTVHKYLPLLHRYTELRKELLGLDDLKMYDLYTPLIKDIKFEMPYEEAKEWMLKALEPMGEEYLNVVKEGLNNRWVDVYENKGKRSGGYSSGAHLTNPFILLNWSNTISDLYTLVHEFGHSAHSYFSRKFQPSNSSDYTIFVAEVASTCNEALLSDYMDKHLDDEKRLLLLNQELERFRATLFRQTMFAEFEHKIHAIEEAGEPLTPTRMNEEYAKLNKLYFGDSVETDEDISKEWSRIPHFYMNYYVYQYATGYSAAQSLSHQILTEGKPAVDRYINEFLKKGSSNYPIEILKNAGVDMTTPEPIEQACEVFEQKLNAFEKLMKEGHHHHHH | soluble
MSLRNEVQFELFGDYALFTDPLTKIGGEKLSYSVPTYQALKGIAESIYWKPTIVFVIDELRVMKPIQMESKGVRPIEYGGGNTLAHYTYLKDVHYQVKAHFEFNLHRPDLAFDRNEGKHYSILQRSLKAGGRRDIFLGARECQGYVAPCEFGSGDGFYDGQGKYHLGTMVHGFNYPDETGQHQLDVRLWSAVMENGYIQFPRPEDCPIVRPVKEMEPKIFNPDNVQSAEQLLHDLGGEEGHHHHHH | soluble
MSLRNKLQQAKRIVIKVGTSSLIYPNGNINLKAIDQLAFTLSDLSNQGKEIILVSSGAIGVGLNKLNLSVRPTTIPEQQAVAAVGQAELMNIYNQRFSTYSQQMAQVLLTRDVIEYPESRNNVTNTFEQLLKMNIIPIVNENDTVAIEELDHLTKFGDNDQLSAIVCQIVQADLLVMLSDIDGFFSDNPTVNKEATLFSEINEINEDLFQLAGGKGSRFGTGGMSSKLKAAERVLANQQAMILANGKQPKIIFEILEGKDIGTLFIKGGHESDEGHHHHHH | soluble
MSLRPATDSPPLCAPPGAEVRAPSFVMPAGACDTHAHVISGDLERYPLVPDRSYTPPPAPEALYLEVLRAMGMQRGVLVQPSVYGTDNRYMLEVLQRHQDQLRGVAVVDEHVGDDELAHMHALGVRGVRINVLFRGGVNLDLMEHLAHRIADLGWHMQFLIDVRLLSEIEARMAKLPCAVVIDHFGHFPAHLGIKEAGFELLLRNVAEHGWWVKLSGAYRLSDQRPDYADTDALAHALLAVAPERMVWGSDWPHVALESTPDTSSLLDRLLSWAPSERQRQSILVDNPGALYDFKEGHHHHHH | soluble
MSLRPLAIIGPTGAGKSQLALDVAARLGARVSVEIVNADAMQLYRGMDIGTAKLPVSERRGIPHHQLDVLDVTETATVARYQRAAAADIEAIAARGAVPVVVGGSMLYVQSLLDDWSFPATDPSVRARWERRLAEVGVDRLHAELARRDPAAAAAILPTDARRTVRALEVVELTGQPFAASAPRIGAPRWDTVIVGLDCQTTILDERLARRTDLMFDQGLVEEVRTLLRNGLREGVTASRALGYAQVIAALDAGAGADMMRAAREQTYLGTRRYVRRQRSWFRRDHRVHWLDAGVASSPDRARLVDDAVRLWRHVTEGHHHHHH | soluble
